# According to the supplement of paper PMC11502859:
# System: HEK293T
# Assay: median enrichment of reporter reads in eGFP-reduced (low/intermediate) vs eGFP-high sorted cells (eGFP-extension fusion abundance) (ratio); higher = stronger loss of eGFP-fusion protein abundance (more destabilising extension)
# 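Note: lentiviral eGFP-IRES-mCherry reporter pool sorted by FACS 96 h post-transduction, gated on mCherry-high cells, Illumina read counts normalized per million, median across four biological replicates.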
row,Substance,median enrichment
1,WGWKGPEG [SLC35B2],1.98
2,WGWRQLSSRSLGFAALAAVTRNCPGLGGELGGP [ACP7],8.55
3,WGWTPVPAGRSPDMWTCSFVPTVHAGLRLEPRGAGQFTGSCRTRCQPLRGGTADARGFAHPGPSVPRAK [ITPKA],6.95
4,WGYWPTLWAPCSA [EFCC1],7.99
5,WHHLIDYGTRKSEGFHIR [PLPP6],7.61
6,WHLFPPCLPLPLFWGHPFPPWLSPLKVSPPLGAFLEPCVSEWSPHSIVPRVCPQTLHLALLGRN [SNRPA],10.5
7,WHLTNHSTEHTFIFVSAFVLKLSKYIHLCNRNL [ADGRV1],13.2
8,WHPCTQEDSAFTKHFHCLAKV [GPR12],11.3
9,WHRRTPGDFLYICRLRLFVTSKWDIV [TAF4],5.8
10,WIEKI [GTF2A2],1.64
11,WILAELLCT [COPS4],5.2
12,WIPQGTTEAKELEVFSRGTDGLRALMMLPEVCKSFMS [LOR],10.9
13,WKDN [PIK3CA],0.482
14,WKGRAQQCK [IRX2],0.459
15,WKHFLPKVSGLRYTSIQQCIVIKILFQS [OR2L3],7.3
16,WKK [JAK2],0.476
17,WKLRF [TRMT11],1.93
18,WKLYMLRDVLLSGSIELPLSVNFKV [PDCD10],11
19,WKMKIP [N4BP2L2],1.67
20,WKRD [RER1],0.349
21,WKRLGRGSGRGLSPPEAGKESLFSHMIFRVLETHSCRSCRTLEFLGNCPAS [GPR83],13.9
22,WKTCSLSILPMKIHFTHPPPLLFCHVFPSLCIARFEVTDTHPKPCCSQSPILHILMGK [SYNJ2BP],7.06
23,WLEWIYDVPLRRSISATILI [HMGCLL1],12.2
24,WLFCKSVLGGPSLRV [OR9A2],4.81
25,WLHNPVYAFCTKKK [ZSCAN5A],8.24

row,Substance,median enrichment
1,WLHW [RIMKLB],3.98
2,WLLITLSHFLVMH [KRTAP22-2],13.9
3,WLQNY [IFNAR2],10.5
4,WLQPAKSILLFHFFHDGAV [CTSK],8.37
5,WLQTC [RAB39A],5.31
6,WLSF [KRT28],6.06
7,WLSLRKGRRRGAQGHLLP,28.3
8,WLTAALAHSARGQDGGYLRPVLSCLFVFLIRDHVGLLRTRKAGKFPAGPSA [MKS1],10.7
9,WLTLSLCCLLLS [SIRPB1],18.9
10,WLVAIFQHSSCIL [LVRN],13.3
11,WLVGLGSSARTSSPALAVVVQALQSAAGLFIKGIYICK [NRN1L],7.25
12,WLVTEDEDNSITKLF [CD58],17.6
13,WLYESFCHKVPKRRGMGRVPQHVVTA [DSN1],11
14,WLYLRFEAGKPDR [UGT2B10],6.76
15,WMLSRSWRFKKKCRMAV [OR52D1],23.1
16,WMQLVCHSI [SERPINB4],10.7
17,WMSMSEGKENFGHQNPAPSELKELIYFMKLILLCVCSWC [GALNT15],26.8
18,WMVLSAGSPLRSGQRKMGGCSSPPQHNDQPPS [NLRP12],13.1
19,WNEKYCGHLNNGLVSYNEMFSRILK [UGP2],3.44
20,WNEPWSPLQSSPWDRDVAGQNSQLCVCVFRLIGNSKSLLPAPSKLDGQWSGIETVV [IL18RAP],5.03
21,WNFENKI [RNASEH2B],0.528
22,WNHRSGRSRALSSCTVFIVPGTLFKDI [LIN7B],4.84
23,WNLLSMILPATPLPSLAQSRGAMLSAHPSCTLAPCSRDVSTHSLC [MYPOP],7.81
24,WNMKAEMQQTTSA [MNDA],0.66
25,WNQS [CFHR1],0.596

row,Substance,median enrichment
1,WNR [ZC3HAV1],0.487
2,WNRIEQNRIE [PCSK5],0.778
3,WPDLSERHGYHRMKVEL [CUTC],12
4,WPEPLADITAGDEEPGLLLLLPVAPGVEVG [LIMD1],12
5,WPFSWATLQSLPPFGR [ZNRD1],6.12
6,WPG [KDM8],0.882
7,WPGGGKHREREWPSGNPAGYPNPKGSYSQRHILVFVIILYQK [VPS26C],16.9
8,WPHPAPPPPRPTRRPPDSSPGASSATPSLHPWGPSPPACTEQGLGVSWEA [ITGB4],1.34
9,WPLDVGKPCGPPLITSSPRMTAEPQASGAGLMYPNLGQHDCRSIQSLPAPSMKGPPKTVLGTQCVAGSPPS [MINDY4],0.736
10,WPLGRPPAQLPCPPPPSSSGFSVLGRLSWGRRWEGRDQLSSLAGKRGCGSQGGLQGTGMSGGHQAQRKRKQREFTGPPEKSQS [CRHR2],1.19
11,WPLQQNSFVLCGAMPSLTPNRVSVILRTFYPQHL [CPNE3],16.4
12,WPLSPHPHLHPRTSLAIGAGPLQTLIPTPTEPLAQVPLVLPHSLAARCPGAHPCRAPKDGEVGGQELLSPTFHAPPLCI [GIT1],3.23
13,WPMLNTHV [NABP1],0.435
14,WPPGTSLALLTHPRNTISGTRAAPRTRGYSRHNLIERAPAALTSTAFDTYASLVLLLSSESSCAHAFSRMGSPLAVAASVLAL [KIAA1522],8.47
15,WPPPAPTRPRRALSIS [SLCO4A1],9.47
16,WPPPASLSPHP [TTC24],0.329
17,WPQFQLSWAPAWTLPMAMPSLGNLSLPSVG [PLA2G3],12.4
18,WPRLSTCHLLACLTLRTHLPGPSLFHPREAELPKTQVFSYLFPILRGFP [ZDHHC18],17.8
19,WPSLPPKPRACLSAQLEGPRLQGVLPQSRCFLCIRDPLPSHPVSCLHRWIIFEPPCVDHFEPPGLAQFILIKVFLGGILGT [PARVG],9.47
20,WPSLRPTCTSGSKWVSSGSPARVLSECLCVCINICIPFGSIAAV [XPNPEP3],17
21,WPSPPCQGQDPDFSKCGSHSAGTCRDMRGGCCHGRLPLHTRHWGSDPPGRWPFSPSS [CYSRT1],2.04
22,WPSSLPPKPTTQC [KPNA7],0.282
23,WPTSRIYSSWKLPNGEDSTKY [KRTAP24-1],3.66
24,WPV [HNRNPUL1],0.672
25,WPVPGALLRPTTASWVGRTGSGGKSQRDQDGGCGAAFPVASIARRVFVCLSVFLTSFFYIFISRQS [NR6A1],9.66

row,Substance,median enrichment
1,WPVRPLSSPS [TBL3],0.256
2,WPYWLTPENGLLLDGHGRINFSKMFWVGVE [ACTL8],1.37
3,WQAAGAWGLHWLPPAP [HNF4A],5.96
4,WQAGS [IFITM5],0.552
5,WQDLLTSS [VN1R4],0.623
6,WQGLPQHQSGDCDREGLAGTPRASGVVTDQEGLARTSANICGAAANNAAITENMVLVLKNVQCHFQQFKINRQNHPVARIT [OR2T2],6.25
7,WQHFCILKKCNLFLITALKL [UBQLN1],12.2
8,WQKSKGHPVPGRLSGICSPVPGTKSSTAAVKKHALESLEHEEKQGLVHMFFGISL [IL1RAPL1],10.6
9,WQLPGDSRLSDSLQEKTVRPPFGPH [SYCE2],0.972
10,WQMVIPFYFSS [CXorf1],10.3
11,WQP [TP53AIP1],0.544
12,WQPPASHTVLQLTAHVHAVRADSSSTQQTRTYGLWMDADDGTVQ [CALN1],8.36
13,WQQPQG [CCNB3],0.678
14,WQRRS [GIMAP1],0.693
15,WRATGPQQCEGSLAAHPAAGAQPLPGMRLSADGETATQSFGLCVCVCVCVCVCAHPRVPVCVRILPPGAEVPWVSPLLCNGLL [FGFR3],3.69
16,WRCRHPSPIIKST [CPS1],8.4
17,WREGSNGSRELDTVHPNTSPPPGHLEESSARIPRQSSPPAPAVPSCAVLLPHSAPGPCPFIPLKHPLKPLHHFHSQQKVIEHL [HAUS5],4.17
18,WRFLLKLTLFHLSF [VHL],9.11
19,WRFPLPSSQPP [MEF2D],2.36
20,WRGARAPWSL [CEP104],1.95
21,WRGEGRPAVDSLILGRSLGCAAISFCECANTKLSRAKL [SLC25A25],6.74
22,WRGLQGSLLWVPT [RNF152],6.67
23,WRKRDAGTHPCLREVWLSPNPPHRPPFTKHLSCLMCPIELHSVRLDAVISGTYVTMFAEAPGVVGRGGRCG [RNF144A],6.33
24,WRLIIYQEC [PKIB],7.89
25,WRLRASRRDLMPRGGGCL [CTU1],5.49

row,Substance,median enrichment
1,WRLSISRDMVLTQQFPVMAKCSI [IL13RA2],5.59
2,WRPAPARMGGGVERRTPIG [NSG2],3.66
3,WRPGRRGPSSGG [Degron KLHDC2],10.7
4,WRPNSRTPK [SNRNP35],0.861
5,WRPPHFRFGFRKTFSEKKLFF [TFDP1],5.19
6,WRPRIQH [FAR1],1.02
7,WRQRGGKETWLSLIICIQITVL [ATXN1],8.6
8,WRRLVSTHSGAFLISSSHTNHPSLPIVSSSQ [CYP19A1],12.8
9,WRSCAAQSQTPAPTTYFCYTQEHFRKLSQLIFCFSSMSILSVSHFEDFFSLLYLCFSFFGFYFVVLSVIFNVPKICTCSIKNV [HOOK3],2.08
10,WSAVA [EFCAB2],0.771
11,WSDCPENQKSKETRETSSLVNEPIKSRSLKKYVSVKKENRIVTVSSKTNKSKSSPLEHSESDTLGCDFEFQESIHSLSHLSYD [CEP78],1.3
12,WSFSHSSPSQRCDGRWTLSGEDALLLGRCSGSFSGARTEAPCDFRPGSMWACNFLHSQLGPIPGFKMVAIPEESP [SUSD1],3.48
13,WSGKLGAFGLKGRMFPVFLDNKLGK [PKHD1],11.8
14,WSICLLNDTSLIYCTIS [RTCA],12.5
15,WSILQDLPEAA [PCDH10],9.03
16,WSLKWRTCVFIISAKVLTSCAFPITSRSNYQLVWIFGPPFSHFGLPCSQNILNESIGIQKDSRQNERK [VCAN],11.9
17,WSLRWSFVTARFARHLPGWLVLG [ARHGEF26],15.8
18,WSLTRSLISRSTCVFIPPGN [FLT1],4.28
19,WSLVTPIEI [OR52A5],7.53
20,WSPLSRDSGKGGFLHPTPLLPWL [KIAA1191],5.6
21,WSPMPAHL [CDNF],9.59
